According to publication PMC11662666 (Nucleic Acids Research, 2024):
Values joined by “and” are separate entries in the source; they are usually repeats but may differ in a detail not shown here. Identical values can stand only once.

Columns and labels:
[1] = biological target: T1, deoxyadenosine kinase (dAK) (Giardia duodenalis, UniProt A8B9V6); assay: enzyme inhibition kinetics with purified dAK; co-purified dATP seen by HPLC; assay type: biochemical; parameters: gene GL50803_0017451; full-length dAK
T1 sequence (A8B9V6 1-251): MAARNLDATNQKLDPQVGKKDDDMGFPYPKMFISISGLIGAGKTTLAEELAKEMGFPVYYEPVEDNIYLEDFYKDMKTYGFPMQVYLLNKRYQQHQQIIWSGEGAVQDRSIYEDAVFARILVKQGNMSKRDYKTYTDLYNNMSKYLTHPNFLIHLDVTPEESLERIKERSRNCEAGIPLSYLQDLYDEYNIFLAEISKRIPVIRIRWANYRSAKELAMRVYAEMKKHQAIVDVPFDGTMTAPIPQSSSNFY

[2] = biological target: Giardia intestinalis deoxyadenosine kinase lacking the N-terminus (dAK-ΔN, amino acids 30-251) (Giardia intestinalis (assemblage A isolate WB)); assay: mass photometry; Refeyn 2MP, protein in PBS; 50 nM by the methods, 65 nM by the results
[3] = biological target: T1, deoxyadenosine kinase (dAK); assay: X-ray crystal structure at […] Å (co-purified ligand); HPLC of bound nucleotides; enzyme inhibition; assay type: binding; parameters: gene GL50803_0017451; full-length dAK (untagged after TEV cleavage)
[4] = biological target: Giardia intestinalis deoxyadenosine kinase lacking the C-terminus (dAK-ΔC, amino acids 1-232) (Giardia intestinalis (assemblage A isolate WB)); assay: mass photometry; Refeyn 2MP, protein in PBS; 50 nM by the methods, 65 nM by the results
[5] = biological target: Giardia intestinalis deoxyadenosine kinase (Giardia intestinalis (assemblage A isolate WB)); assay: as above
[6] = biological target: Giardia intestinalis deoxyadenosine kinase (Giardia intestinalis (assemblage A isolate WB)); assay: crystal structure + cryo-EM structure
[7] = biological target: Giardia intestinalis deoxyadenosine kinase (Giardia intestinalis (assemblage A isolate WB)); assay: SEC; Superdex 200 10/300 GL, 150 mM KCl, 50 mM Tris-HCl pH 7.6, 0.4 ml/min; protein at 0.1 mg/ml (4 μM); mass from a standard curve
[8] = biological target: Giardia intestinalis deoxyadenosine kinase lacking the N- and C-termini (dAK-ΔNΔC, amino acids 30-232) (Giardia intestinalis (assemblage A isolate WB)); assay: mass photometry; Refeyn 2MP, protein in PBS; 50 nM by the methods, 65 nM by the results
[9] = substrate: Nc1nc(Cl)nc2c1ncn2[C@@H]1O[C@H](CO)[C@@H](O)[C@@H]1F; assay: steady-state kinetics with purified enzyme, HPLC (KM); assay type: biochemical, Giardia duodenalis; conditions: ATP and Mg2+ (phosphate donor in assay)
[10] = substrate: Nc1ncnc2c1ncn2[C@@H]1O[C@H](CO)[C@@H](O)[C@@H]1O; assay: as above; assay type: biochemical, Giardia duodenalis; conditions: ATP and Mg2+ (phosphate donor in assay)
[11] = substrate: Nc1nc(F)nc2c1ncn2[C@@H]1O[C@H](CO)[C@@H](O)[C@@H]1O; assay: as above; assay type: biochemical, Giardia duodenalis; conditions: ATP and Mg2+ (phosphate donor in assay)
[12] = substrate: Nc1nc(I)nc2c1ncn2[C@H]1C[C@H](O)[C@@H](CO)O1; assay: as above; assay type: biochemical, Giardia duodenalis; conditions: ATP and Mg2+ (phosphate donor in assay)
[13] = substrate: Nc1ncnc2c1ncn2[C@@H]1O[C@H](CO)[C@@H](O)[C@@H]1F; assay: as above; assay type: biochemical, Giardia duodenalis; conditions: ATP and Mg2+ (phosphate donor in assay)
purified protein [14] = substrate: Nc1nc(Cl)nc2c1ncn2[C@H]1C[C@H](O)[C@@H](CO)O1; assay: purified protein; conditions: ATP and Mg2+ (phosphate donor in assay) active site (2-Cl towards F72, modelled)
purified protein [15] = substrate: Nc1ncnc2c1ncn2[C@H]1C[C@H](O)[C@@H](CO)O1; assay: purified protein; conditions: ATP and Mg2+ (phosphate donor in assay) active site

Nc1ncnc2c1ncn2[C@H]1C[C@H](O)[C@@H](COP(=O)(O)OP(=O)(O)OP(=O)(O)O)O1 [dATP, deoxyadenosine triphosphate]
Ki [1]: 840 ± 220 nM

Giardia intestinalis deoxyadenosine kinase lacking the N-terminus (dAK-ΔN, amino acids 30-251) (domain or fragment)
stoichiometry N [2]: 4 and 2

Nc1ncnc2c1ncn2[C@H]1C[C@H](O)[C@@H](COP(=O)(O)O)O1 [dAMP, deoxyadenosine monophosphate]
X-ray crystal structure at 2.1 Å (co-purified ligand); HPLC of bound nucleotides [3]: the density for active site II unambiguously allowed for the placement of a dAMP

Giardia intestinalis deoxyadenosine kinase lacking the C-terminus (dAK-ΔC, amino acids 1-232) (domain or fragment)
stoichiometry N [4]: 2 and 4

Giardia intestinalis deoxyadenosine kinase (enzyme)
stoichiometry N [5]: 4 | stoichiometry N [6]: 4 | stoichiometry N [7]: 4

Giardia intestinalis deoxyadenosine kinase lacking the N- and C-termini (dAK-ΔNΔC, amino acids 30-232) (domain or fragment)
stoichiometry N [8]: 2

B1: deoxyadenosine kinase (dAK) (Giardia lamblia ATCC 50803) (protein)
chain: MAARNLDATNQKLDPQVGKKDDDMGFPYPKMFISISGLIGAGKTTLAEELAKEMGFPVYYEPVEDNIYLEDFYKDMKTYGFPMQVYLLNKRYQQHQQIIWSGEGAVQDRSIYEDAVFARILVKQGNMSKRDYKTYTDLYNNMSKYLTHPNFLIHLDVTPEESLERIKERSRNCEAGIPLSYLQDLYDEYNIFLAEISKRIPVIRIRWANYRSAKELAMRVYAEMKKHQAIVDVPFDGTMTAPIPQSSSNFY
notes: full-length dAK
Km [9]: 6.23 ± 1.33 µM | Vmax [9]: 7.26 µmol/min/mg | kcat [9]: 3.51 s⁻¹ | kcat/Km [9]: 563000 M⁻¹ s⁻¹ | Km [10]: 6.70 ± 0.07 µM | Vmax [10]: 6.6 µmol/min/mg | kcat [10]: 3.19 s⁻¹ | kcat/Km [10]: 476000 M⁻¹ s⁻¹ | Km [11]: 8.40 ± 0.60 µM | Vmax [11]: 7.2 µmol/min/mg | kcat [11]: 3.48 s⁻¹ | kcat/Km [11]: 414000 M⁻¹ s⁻¹ | Km [12]: 4.78 ± 0.17 µM | Vmax [12]: 13.7 µmol/min/mg | kcat [12]: 6.63 s⁻¹ | kcat/Km [12]: 1.39e+06 M⁻¹ s⁻¹ | Km [13]: 2.66 ± 0.11 µM | Vmax [13]: 7.64 µmol/min/mg | kcat [13]: 3.69 s⁻¹ | kcat/Km [13]: 1.39e+06 M⁻¹ s⁻¹ | Km (purified protein [14]): 0.51 ± 0.08 µM | Vmax (purified protein [14]): 5.78 µmol/min/mg | kcat (purified protein [14]): 2.79 s⁻¹ | kcat/Km (purified protein [14]): 5.48e+06 M⁻¹ s⁻¹ | Km (purified protein [15]): 1.12 ± 0.37 µM | Vmax (purified protein [15]): 10.3 µmol/min/mg | kcat (purified protein [15]): 4.96 s⁻¹ | kcat/Km (purified protein [15]): 4.43e+06 M⁻¹ s⁻¹
